Results reported in PMC9734910.

Target: PDF-2180 S ectodomain trimer (PDF-2180 (bat coronavirus, infects Pipisrellus hesperidus) | not stated)
Assay: cryo-EM structure

“PDF-2180 S ectodomain trimer (domain or fragment)” showed a stoichiometry N of 3.
